# Laboratory results published in the DeepSol protein solubility set.
# Experiment: soluble on expression in E. coli; label from the status in PepcDB or PDB records
row,Sequence,soluble on expression in E. coli
1,MGSDKIHHHHHHMNAGLDGLLLLRAPNLAYATGLFLSANERPMGVWLPMDGDPILMLPGLERENAKGTGLTDLRFYDEFPGKEPPVLWMLDQIGRKHIGIDALDAALLDAARDKAVRIDLTDHAMAARTIKEPEEIALTVEAASFADLFLTRLHAAAGDIINQGGTEADLMADAMAHARGALMAKHKQAFSGTPMGITASVHSGPRAALPHGAVLERVPQPGETLIAGIGASLGGYHAESGVTLIVGSISAEQRQIMAAMKACNDAGVAACGARTTCTQANDAALDALRAAGLGDTIRHRIGHGMGLEGHEDPWLAPGDPTPIQTHMIFSNEPGVYRPGIDGYRTINTMIVTEDGVDIPSRFQANTPIDARVIAL,not soluble
2,MGSDKIHHHHHHMNDPAHPPIPPVSKRDAPAFSDLQHRATSASAFTQGSTTYHDVRPGYPAEAVELARGFGRVLDVGAGTGKLTSELTADQVLALDPSMDMLRVFRSALPAVPCWQATAEHTGIRDNAVDLITCAQTWHWVDVTAASAEFDRVIAPEGAVLLVWNNLDTSIAWVHRLSRIMHAGDVLKPGFTPETAAPWIIDREIRTTWNQHLTPEEIIQLAHTRSYWLNASEKIKERVDQNLQWYLYEHLGFSPDNPVELPYRCDAFLLSRSGTLAGRSSNL,not soluble
3,MGSDKIHHHHHHMNDYDNNSNINEDAWNKETYSAWVKRFGTPDTAAKKISKDPSKILSVLHEKLGDVKGKKIMNIMGSNGSKAVALALLGADVTVVDFSKGNMDYALDLAKEADVKIDYILSDILKLPEDKLTADYDIVFAEMGIIHYFIDLKPFIKTINRLLKEGGLFVLRDFHPVSTKLITSRGSTAKVRKHKVTGDYFDTSLEEKDAAFSKYLIDNKEPEKVLLRKWTLGEIVTSVAEGGFKIKKLDEEPNLSCDNFDKGIPKSFTLTSEKLS,not soluble
4,MGSDKIHHHHHHMNELDIIKIISKNLSYSNGVEKGIGDDCAVFKFENQHLVVTTDMMFKSTHFPSILTPFQIGMRVVTANVSDIAAMCAKPLGMVISMGFDNPKKTFIDEMSKGINFISKEYGCPIAGGDTNKAPELTLSGTAFGITDNPIYRGGIIGEDICITGDVGKVNCALKLLEMKDKGILGNIEFEKTMSEFPRIMKKLAEPKARVKEGLLLNKIITSCCDISDGLSKDLNYTGNFEINSKNLLNSVSREVIEFCEKFDMDLLKTVLNSGEEFELLFTTPDFKKAEEKLKDINSVTKIGKVVESGKTVDGISVELEGYVHKW,not soluble
5,MGSDKIHHHHHHMNETGLLDAYGTEEKEAYIGVIASIATADRVATEDELEYLNALSEAVGINPDVAEAAAKDRSDESLSKYLNALKGSDLRFSLITDIVSFARSDGRYTADEEEKIKNSCRYLGITDEQVTVLEELVEKSNILITIPEEATDEGFFEKNGFSQMLKKANIPLISIVKGLLGLAAPFVLSKMVRSRSLSGSPAAGGLGGQLGGTVLGTFQAGRIGGLGSILANLNGIRGYADIGTILKKAIDKKEINS,not soluble
6,MGSDKIHHHHHHMNEVIENVKEYYGKILHSTADLQSKACCCSPDSMPKEVKKALIFIADEVINRYYGCGSPLPPLLEGMTVLDLGCGSGRDVYVAAQLVGEHGRVIGVDMTQEQLDVAKKYEDEQRQRFGYAKSNVKFLSGYIEDLRAAGISDSSVDIVISNCVVNLSPDKEKVFAEIWRVLKPGGELYFSDVFADRRIPEYLAADPVLRGECIGGALYYEDFRRIMQRVGFTDFRYKSIRNIDLDNEAIIEKVGFANFTERTVRAFKLDDLEDICEDYGQIAVYNGSIASSPHFFDLDDHHRFFTGKPLLVCGNTAAMLAKTRFASAFRVIGNRSTHYGVFGVCGGKSETNCFDTGSSCGC,not soluble
7,MGSDKIHHHHHHMNFIDTLKSVDLILSTGEVPLIVGESGIGKTALANKLAKENDWSLIVIDGNLLKEGEIGGLPTIESYVGVNSNGYKTEKKTTVYAVHNKLREIDEEISKSKTVLLFIDEINRCEHTVQQELMNLILNREINGYKLHDDVKILAAMNPSSKYGSDFDYQVVDMDAAQENRFVWLNMESDHTQWIKWAIDEGIERKVIEFISTFPEYLHKINEDDVRATPRSYERVSKIYKVYKEKNNSIPRAVFLNVVKGNVGKVIAEEFISFIESNFEPLISYEDVFLGESIDESIVERVKNESHTRLYLSAMNILKDLELNIKNDKYESNHYINRFIEFLKMYPVDLMIGIMKDIRNSYIEVYKKAIENEEFVKSYFESYSLIRG,not soluble
8,MGSDKIHHHHHHMNFNSDLLNLNSKSPAFSITIEGKDVTTVMDARLMSLTLTDNRGFEADQLDLELDDADGQIVLPRRGAVIHLALGWKGQPLFPKGAFTVDEIEHSGAPDRLTIRARSADFRETLNTRREKSWHQTTVGEVVKEIAARHNLKVALGQDLTDKALDHMDQTNESDASFLMKLARQYGAIASVKDGNLLFIRQGQGRTASGKPLPVITITRKAGDGHRFTLADRGAYTGVIASWLHTREPRKKETTSVKRRRKKATTPKEPEAKQGDYLVGTDENVLVLNRTYANRSNAERAAKMQWERLQRGVASFSLQLAEGRADLYTEMPVKVTGFKQPIDDAEWTITTLTHSVSPDNGFTTSMELEVKIDDLEIE,not soluble
9,MGSDKIHHHHHHMNFTMNFPGLKDTFITKVEEVGEIVRLYVEMERKVHRCPKCQKRTKKVHDYRIQKIKHLKWFERQTQIFYKRRRYVCACGKRFAENNSFVERYQRTSIEWNQAVAIRAIKGKTFKETAENYGSSATTIVRRFDQISSSEIRPVEELPAIIAIDEYKGDTKEGKYQLIIADAVTKEPLDILPNRYKRTIKDYLRRHGSKVQMVIMDMSPSFKAAVQEALGRPVIIADRFHFCRYIYWALDGVRRRVQKDFHAYDRKKCKRMKHVFHKENSRLTEEERWYLDRYLKMSTELQKAYELKEAYQDWFKRSKEIGATQIERVKKELKAIYKLVKNSGIPEMCRAIGTFENWQTEILNSFAYGYSNGFLEGINNSTKVLKRNAFGFRSYERFRAKILLTHKYKRIGVHIG,not soluble
10,MGSDKIHHHHHHMNICDLAPAYIRAISPYQPGKPISELAREMGMDEQSIIKLASNENPLGTSPMALNAMSKALDEVSLYPDGSGFELKAALSERYGVTSDQIVLGNGSNDVLELAARVFLKPGASTVYSQHAFAVYPLVTKAVGGIGISVPARNYGHDLDAMLDAVAPETRVVFIANPNNPTGTLLPADDVLRFLERVSPDVLVVLDEAYNEYLPPALKGDSIAWLKQFPNLLITRTFSKAYGMAGVRVGFGLGHPDVAGLMNRVRQPFNVNNIGLAGAVAALQDEEFVKRSYALNQAGMLQIVTGLRQMGIEYIPSYGNFLSFRVPGNVKAINESLLKQGVIVRPISIYEMPEHLRVTVGLESENEKFLKSLAIALETTEGAAADTIPEMAVSFPKVASGGTA,not soluble
11,MGSDKIHHHHHHMNIEDTLLKQDVWRFIDNTTINPAFDAIQSFATDDTLCRSVGARMAPSTVRGWVHEKTVSLGIQDSKLPDIDKGIAFLQEQGYRVVVRNSGGLAVVLDSGVLNLSMVLPDAERGIAIERGYETMFTLIKDMFVDCNEVIEAKEIEDSYCPGSYDLSIQGEKFAGISQRRMAKGVAVQIYLAIDGDQTTRSELIRDFYTISGKAKQTKYTFPDVNPNVMGSLSDLMKNDISLNGTLVRLFNSLRHYAGELVSGTLTSEELDLFPAYYERLIARNDKVLT,not soluble
12,MGSDKIHHHHHHMNIFDILRDYLLVQVDKYNLNMDMISIVSKSLSSKEAIGNTKRKDFPIIVGKEIMLEADFKGAKGQAFTSTPSTFEGSLKDILSLDLHDNPHDRSLFIASLNAVMKYLGKTDRTIHCKNNEPEVCAKKFPEFIKMEFGNPKVAIIGYQPAIIDNIKDFFETRVLDLNPEFVDTIQYNVKIEDGIRDYEDVISWADLVICTGSTLCNNSIINFLSLNKPVYYYGTTIAGASNILGLKRLCFCSK,not soluble
13,MGSDKIHHHHHHMNIKDLKYFYHLSQLQSFTKVAEKFQISQPSVSYSVKRLEEQFNCDLIVKDPSHRTFALTQQGNILKRHLERILPEISSAQKEMNRSLAHYSTLGCPPIIINYLLSLLKETNQDLAFLKRIRSIRGGSVELLEQLLQGDLDLSLIGTIEPFYHDELVIKKILHRKLYLIVSKDHLLAKRKKAIAFADVLKENFILLDEHNIHLKAFDYLNQTHQNQAQIFFKSDDVTLIKQMVSHNMGVSLLTDISLTKQDHHLVKIPFKENNKLGFYVNYAYLKSSTLTPDIRHLVDLLDKIAQSF,not soluble
14,MGSDKIHHHHHHMNIKQLHYFLVVAEEKQITAAAKRLYIAQPPLSYQLKQLEKELGAQLFKRTAHGIELTDAGQTLQSYASEILSLAQNAKNQVHKTISGELGTVAMGIVSSSTGYMPIAAFKELTQFYPEINFDIYEDNTFGVLDKLEKKTIDMGIVRTPYNRTGLNAKTLTTEKMMAVTNDITLLHKKELRIEDLKDQPLIIYRRFEEMFNQTFAHHGIKPFYAMKCDDSRTAITWAKQNMGLALVPESIATTYAKNKMIAVKHVNWITHLQLVWRKDQIVTPLMKKIISLVK,not soluble
15,MGSDKIHHHHHHMNINPTEKLSQPIVEKVAIVGAGPGGLAAAIALRSQGIDVQIYEKAQEFRPAGTGLGLAPNGLNFLDAIAPGIVETLKGSGCEVHHTVLKNFRGETIRANASKYQEKYGQPLVTVWWYRLQQVLASRLPSDIVHLNHRCIGFEQDENGVEIRFDGEKSVYADLLIGADGVNSVIREILFGEGKPNYIGSMCWRAVIKYHHELFNDYELVFVKGNQQFMYLLNVGGGYMSWISRKFSPEYSLCHSADEVKSRILHELADWDESFQVVVQATPAEQIWEGPICDRPPLTHWSQGRVTLLGDAAHPMAPAMGQGANTTFEDAYELRECFSQSANLQEALTSYEQRRMQRTEIIQARSALGEMRYYESNTVASNGQREQTMSVNDDFHKWLYDYKPSATIKF,not soluble
16,MGSDKIHHHHHHMNKMKIAHLTSAHPRHDIRIFVKECSSLAAAGHEVTLIVADGQGEEIRNGVRIHDVGPKRGGRLARMTGTVKRVYQAALRLRPDVVHFHDPELIPAGVRLKQAGIKVVYDVHEDVPRQILAKHWIPGAVRPLVSGGFETLEDWAARRFDAIVTSTPHIRKRFERLGANALDVCNFPILEELVRDTPWESRRNEVCYIGGISRIRGIEPIVAALPDTSTRLNLAGPWSESDLRAKVTAEPGWARVNDLGVLDRKGVAEVLARSKIGLVTLFPTPNYVDALPIKLFEYMAAGMPVIASDFPVWREIVADAGCGVLVDPQDAAAIAAAINELLGDEERMRKLGESGKRAVLSKYSWAAEADKLVALYASL,not soluble
17,MGSDKIHHHHHHMNKVTINPQIQLTYQIEGKGDPIILLHGLDGNLAGFEDLQHQLASSYKVLTYDLRGHGKSSKSESYDLNDHVEDLKILMEKLNIHEAHILGHDLGGVVAKLFTDKYAYRVKSLTTIASKKDDLIHSFTQLLIQYQDDIAGFNKSEAYILLFSKLFRNQEKTMKWYQKQRIYSIKSEDDSAVAIRSLILHKDEPMYLKKRTCVPTLLINGEHDPLIKDKNHFKLEAHFLNVTKKIFEHSGHAPHIEEPEAFMNYYLNFLKSVS,not soluble
18,MGSDKIHHHHHHMNLKQLEYFMHVAELGSFSKAAMVLDVAQPALSRQVRGLETELRQQLFLRNGRGVALTEAGRRLFDHSVAIMQMVAHAREDLGASRDAPVGRVTIGLPPSIARQLTLPLIDHFKRTLPSARLAIVEGLSSHIIEWVTTGRADVGLVYNPDAQPGIEITPLLQEPLGLVSYAPPSKRRGAAAPLPFKELSKYPLIVPERVHAMRRLLENEAALAGVKLDIAWEVSSVPSIIELVCAGYGHAVLTRSGVAASPRAAELVMRPLIEPAPASALCLVVSATRRPTPLAQHSMRMLTDLVRTLPT,not soluble
19,MGSDKIHHHHHHMNLSMISASVTMGELQKKLDTLSHNIANSNTTGYKRREASFSDLLFQQVNTNKATQYETGRLTPNGIRVGSGAKVSQTALRMEQGTLTTTDRALDFAIANPSSFFEIETVVDGNPVTRLTRDGAFYLTANPNNDNLLQLVTQNGDYLLDSAGNRINIPATFEEITLTDQGTLQVTMPNGANVQAAQLQLIQVMKPQLLEAVGGNMFQLPDLAALGFAENEVYAAVGAGGGAVVQGTLEGSNVDIGREMTDLIETQRNYQFNARSVSMADQMMGLVNGLRR,not soluble
